Source: paper PMC2761005, “Three-Dimensional Structure of N-Terminal Domain of DnaB Helicase and Helicase-Primase Interactions in Helicobacter pylori” (PLoS ONE, 2009)

What was measured:
[1] = molecular target: the molecule itself; test: SEC; Hi Load superdex-75 16/60 column, 20 mM Tris.Cl pH 7.5, 100 mM NaCl, 1 mM EDTA, 5 mM βME; mass deduced from a plot of gel filtration standards
[2] = molecular target: C-terminal domain (CTD) of H. pylori DnaG primase (H. pylori) (UniProt P56064); test: SPR; Biacore 2000, 25°C; 750 RU of CTD of HpDnaG amine-coupled on a CM4 chip; helicase samples (10 µM) injected at 20 µl/min in 10 mM Hepes pH 7.4, 150 mM NaCl, 3 mM EDTA, 0.005% P20
Sequence of C-terminal domain (CTD) of H. pylori DnaG primase (H. pylori) (P56064 whole entry, the tested form may be a part): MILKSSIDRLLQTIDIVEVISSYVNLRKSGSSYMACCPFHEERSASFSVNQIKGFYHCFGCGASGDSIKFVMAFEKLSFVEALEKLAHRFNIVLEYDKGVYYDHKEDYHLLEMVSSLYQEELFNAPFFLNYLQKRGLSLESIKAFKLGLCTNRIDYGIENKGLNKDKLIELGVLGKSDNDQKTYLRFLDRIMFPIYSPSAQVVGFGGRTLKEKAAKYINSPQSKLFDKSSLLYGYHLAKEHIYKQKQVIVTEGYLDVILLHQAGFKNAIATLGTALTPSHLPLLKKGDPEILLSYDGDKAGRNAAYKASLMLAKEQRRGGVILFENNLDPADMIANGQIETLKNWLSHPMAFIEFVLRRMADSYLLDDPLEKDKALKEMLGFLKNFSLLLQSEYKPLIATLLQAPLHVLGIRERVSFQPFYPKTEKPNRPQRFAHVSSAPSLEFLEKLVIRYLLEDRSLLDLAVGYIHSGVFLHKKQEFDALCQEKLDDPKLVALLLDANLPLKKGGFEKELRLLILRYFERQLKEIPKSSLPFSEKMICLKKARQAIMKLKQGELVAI

Binder | stoichiometry N [1] | Kd [2]
N-terminal domain (NTD) of H. pylori DnaB helicase (residues 1-121) (domain or fragment, UniProt O25916 1-121, looked up, Cloned NcoI/XhoI into pET 28a; also called NTD of HpDnaB; source: E. coli BL21 (DE3), purified (Ni-NTA, Superdex-75 gel filtration); not shown: His6, C-terminal, kept) MDHLKHLQQLQNIERIVLSGIVLANHKIEEVHSVLEPSDFYYPPNGLFFEIALKLHEEDCPIDENFIRQKMPKDKQIKEEDLVAIFAASPIDNIEAYVEEIKNASIKRKLFGLANTIREQA | 2 | 
N-terminal domain with longer linker (NTDL) of H. pylori DnaB helicase (residues 1-144) (domain or fragment) MDHLKHLQQLQNIERIVLSGIVLANHKIEEVHSVLEPSDFYYPPNGLFFEIALKLHEEDCPIDENFIRQKMPKDKQIKEEDLVAIFAASPIDNIEAYVEEIKNASIKRKLFGLANTIREQALESAQKSSDILGAVEREVYALLN |  | 0.11 µM
H. pylori DnaB helicase, full length (enzyme) MDHLKHLQQLQNIERIVLSGIVLANHKIEEVHSVLEPSDFYYPPNGLFFEIALKLHEEDCPIDENFIRQKMPKDKQIKEEDLVAIFAASPIDNIEAYVEEIKNASIKRKLFGLANTIREQALESAQKSSDILGAVEREVYALLNGSTIEGFRNIKEVLESAMDLITENQRKGSLEVTGIPTGFVQLDNYTSGFNKGSLVIIGARPSMGKTSLMMNMVLSALNDDRGVAVFSLEMSAEQLALRALSDLTSINMHDLESGRLDDDQWENLAKCFDHLSQKKLFFYDKSYVRIEQIRLQLRKLKSQHKELGIAFIDYLQLMSGSKATKERHEQIAEISRELKTLARELEIPIIALVQLNRSLENRDDKRPILSDIKDSGGIEQDADIVLFLYRGYIYQMRAEDNKIDKLKKEGKIEEAQELYLKVNEERRIHKQNGSIEEAEIIVAKNRNGATGTVYTRFNAPFTRYEDMPIDSHLEEGQETKVDYDIVTT |  | 2.25 µM
